{
  "source": "the RNAGym collection of RNA variant scans (doi:10.1073/pnas.2313332121)",
  "parents": {"B1": {"name": "TPR 5TU (parent)", "chain": "GGAUCUUCUCGAUCUAACAAAAAAGACAAAUCUGCCACAAAGCUUGAGAGCAUCUUCGGAUGCAGAGGCGGCAGCCUUCGGUGGCGCGAUAGCGCCAACGUUCUCAACUAUGACACGCAAAACGCGUGCUCCGUUGAAUGGAGUUUAUCAUG"}},
  "note": "Variants at the floor of the assay were thinned out.",
  "data": [
    {"variants_of": "B1", "experiment": "polymerase ribozyme fitness, log enrichment relative to wild type (log ratio); higher = more active; in vitro selection for triplet polymerase activity", "outline": "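Mutant libraries for each subunit of a heterodimeric triplet polymerase ribozyme were made by PCR and then transcribed. Each library underwent one round of in vitro selection in triplicate: annealing with a biotinylated primer, the partner subunit and triplets, frozen incubation at −7 °C, gel excision of extended constructs, streptavidin-bead capture and RT-PCR. Input and output libraries were Illumina-sequenced, and only genotypes with ≥10 input reads and ≥1 read per output were kept. Fitness is the logarithm, base 2, of genotype enrichment over wild-type enrichment, computed from inverse-variance-weighted replicate averages.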", "values": [
      {"variant": "U6G G94C C123A", "polymerase ribozyme fitness (log ratio)": 0.0628},
      {"variant": "U6G A23U C51A U55G A115U", "polymerase ribozyme fitness (log ratio)": "≤ -4.2"},
      {"variant": "C8A A17C A24G A30G C35G G81C A89C G141C", "polymerase ribozyme fitness (log ratio)": -3.67},
      {"variant": "U6A G50C A52C", "polymerase ribozyme fitness (log ratio)": "≤ -4.2"},
      {"variant": "C8G A12G C35U C75A G86U U109G U127G A137G", "polymerase ribozyme fitness (log ratio)": "≤ -4.2"},
      {"variant": "U7G C96U", "polymerase ribozyme fitness (log ratio)": -2.17},
      {"variant": "U6C C35U G59A A66C G84U C93U A98U G100A A106C A142C", "polymerase ribozyme fitness (log ratio)": "≤ -4.2"},
      {"variant": "C8U C95U", "polymerase ribozyme fitness (log ratio)": -2.24},
      {"variant": "U7G A26C U44A G74C A115C", "polymerase ribozyme fitness (log ratio)": "≤ -4.2"},
      {"variant": "C8A A22C C35U G48C A73U", "polymerase ribozyme fitness (log ratio)": "≤ -4.2"},
      {"variant": "U7A A22C C85U", "polymerase ribozyme fitness (log ratio)": -4.04},
      {"variant": "C8A A12G A41C A47G U53A G143U U151C", "polymerase ribozyme fitness (log ratio)": "≤ -4.2"},
      {"variant": "U6C C57U G83U G84U A121U", "polymerase ribozyme fitness (log ratio)": -3.18},
      {"variant": "U7A A24C A47C U109C A120U", "polymerase ribozyme fitness (log ratio)": "≤ -4.2"},
      {"variant": "U6G C38U U44A G81C A120C G140U", "polymerase ribozyme fitness (log ratio)": "≤ -4.2"},
      {"variant": "U6C G117C", "polymerase ribozyme fitness (log ratio)": -0.247},
      {"variant": "U6G G50C U56A G65A A73C C96U U139C", "polymerase ribozyme fitness (log ratio)": "≤ -4.2"},
      {"variant": "C8G G62C G70U C96A C103U", "polymerase ribozyme fitness (log ratio)": "≤ -4.2"},
      {"variant": "C8A A49G G71A C93U G152A", "polymerase ribozyme fitness (log ratio)": "≤ -4.2"},
      {"variant": "U6C A66C C72A U77C U82A U111C G126A", "polymerase ribozyme fitness (log ratio)": "≤ -4.2"},
      {"variant": "C8U A17U G42C C116U C125U U146G", "polymerase ribozyme fitness (log ratio)": "≤ -4.2"},
      {"variant": "U7A A22G U77C G124U C132A", "polymerase ribozyme fitness (log ratio)": "≤ -4.2"},
      {"variant": "C8U C35U A41C G58C G68U G86U C114A G140A", "polymerase ribozyme fitness (log ratio)": "≤ -4.2"},
      {"variant": "U7A U9C A20G U53G C87U A98U", "polymerase ribozyme fitness (log ratio)": -3.99},
      {"variant": "U6G A24U C79A G84U C85U G117U G141A", "polymerase ribozyme fitness (log ratio)": "≤ -4.2"},
      {"variant": "C8G C96U", "polymerase ribozyme fitness (log ratio)": -3.47},
      {"variant": "U7C U31A G46A G59C C85G C118U", "polymerase ribozyme fitness (log ratio)": "≤ -4.2"},
      {"variant": "U6G A41G G48U C54U A122U", "polymerase ribozyme fitness (log ratio)": -0.949},
      {"variant": "C8U A29G G62A C93U C95A U144A", "polymerase ribozyme fitness (log ratio)": "≤ -4.2"},
      {"variant": "U6G A23G U144G", "polymerase ribozyme fitness (log ratio)": -3.95},
      {"variant": "U7C G50C C51U C87U G152U", "polymerase ribozyme fitness (log ratio)": "≤ -4.2"},
      {"variant": "C8U G11C A23C A60G G94U G136U U144A", "polymerase ribozyme fitness (log ratio)": "≤ -4.2"},
      {"variant": "C8G A30C C75A G86U C118G", "polymerase ribozyme fitness (log ratio)": "≤ -4.2"},
      {"variant": "U6C A19U A60C C87A A91U U134G", "polymerase ribozyme fitness (log ratio)": "≤ -4.2"},
      {"variant": "C8A A40U G42A G68A C85U U144G", "polymerase ribozyme fitness (log ratio)": "≤ -4.2"},
      {"variant": "U6C A24U A28C C35U A37U U90G C93A C131U U145C", "polymerase ribozyme fitness (log ratio)": "≤ -4.2"},
      {"variant": "C8A A20G G68C C85A G126A", "polymerase ribozyme fitness (log ratio)": "≤ -4.2"},
      {"variant": "U6G A40C", "polymerase ribozyme fitness (log ratio)": 1.13},
      {"variant": "U6A G58C G94A", "polymerase ribozyme fitness (log ratio)": -0.942},
      {"variant": "C8U G74U C79U C93A G143U", "polymerase ribozyme fitness (log ratio)": "≤ -4.2"},
      {"variant": "U6C U44A U56A U61C A91G U130A C132U A150C U151G", "polymerase ribozyme fitness (log ratio)": "≤ -4.2"},
      {"variant": "U7G C57U G59C G88A C93A A115C", "polymerase ribozyme fitness (log ratio)": "≤ -4.2"},
      {"variant": "U7C U45G G83C G128U C132G A147C", "polymerase ribozyme fitness (log ratio)": "≤ -4.2"},
      {"variant": "U6G U13G A41U A52C G133U A138G U148G", "polymerase ribozyme fitness (log ratio)": "≤ -4.2"},
      {"variant": "C8G G70C C93U C99U U148G", "polymerase ribozyme fitness (log ratio)": "≤ -4.2"},
      {"variant": "U6C U53A G59A G83A U90G C118U C131U A137G A138C", "polymerase ribozyme fitness (log ratio)": "≤ -4.2"},
      {"variant": "C8U C57U U61A G117A A121U U134C", "polymerase ribozyme fitness (log ratio)": -4.09},
      {"variant": "C8A A17U U55A G81C C87A A91U U144C U145C", "polymerase ribozyme fitness (log ratio)": "≤ -4.2"},
      {"variant": "U6G G50U C85U C116U G152U", "polymerase ribozyme fitness (log ratio)": -3.7},
      {"variant": "U7G U44G U55G C99A", "polymerase ribozyme fitness (log ratio)": "≤ -4.2"},
      {"variant": "U7A A29G G67A C69U G80C C103G U104C C105U G136A G140U", "polymerase ribozyme fitness (log ratio)": "≤ -4.2"},
      {"variant": "C8U A16U A21C G67U C87U", "polymerase ribozyme fitness (log ratio)": "≤ -4.2"},
      {"variant": "C8G A20C", "polymerase ribozyme fitness (log ratio)": -3.59},
      {"variant": "C8U C54A", "polymerase ribozyme fitness (log ratio)": -3.8},
      {"variant": "C8G C43G A52G C93G C114G A121G", "polymerase ribozyme fitness (log ratio)": "≤ -4.2"},
      {"variant": "U6A C54A C93G", "polymerase ribozyme fitness (log ratio)": "≤ -4.2"},
      {"variant": "U6A U13A U61A C76A A91G", "polymerase ribozyme fitness (log ratio)": "≤ -4.2"},
      {"variant": "C8G A52G C57U G80C U104G U148G", "polymerase ribozyme fitness (log ratio)": "≤ -4.2"},
      {"variant": "U7A C27A U31G A66U U146G A150U", "polymerase ribozyme fitness (log ratio)": "≤ -4.2"},
      {"variant": "C8A C27U C76U", "polymerase ribozyme fitness (log ratio)": "≤ -4.2"},
      {"variant": "U7C G48U G84A G117C", "polymerase ribozyme fitness (log ratio)": "≤ -4.2"},
      {"variant": "C8A C35G C51U G59A A73G C76A C85G A138U U151C", "polymerase ribozyme fitness (log ratio)": "≤ -4.2"},
      {"variant": "U6G C95U C96G", "polymerase ribozyme fitness (log ratio)": -0.705},
      {"variant": "C8A C32A G62A U82G G143A", "polymerase ribozyme fitness (log ratio)": "≤ -4.2"},
      {"variant": "U6A U15G A16U G74A U82G C95U", "polymerase ribozyme fitness (log ratio)": "≤ -4.2"},
      {"variant": "C8A U31G A37G G42A G83A", "polymerase ribozyme fitness (log ratio)": "≤ -4.2"},
      {"variant": "U6C C38U C75G U82A A107G A120G G133A U134A", "polymerase ribozyme fitness (log ratio)": "≤ -4.2"},
      {"variant": "C8U A19C U33G U53A U55A C96G C108U", "polymerase ribozyme fitness (log ratio)": -3.8},
      {"variant": "C8A C32G A47U C54G G92U", "polymerase ribozyme fitness (log ratio)": "≤ -4.2"},
      {"variant": "U7G C14G A52C U55C G80A G86U C87A", "polymerase ribozyme fitness (log ratio)": "≤ -4.2"},
      {"variant": "C8A A17U A39U C85U U139A", "polymerase ribozyme fitness (log ratio)": "≤ -4.2"},
      {"variant": "C8U G92C U111C", "polymerase ribozyme fitness (log ratio)": "≤ -4.2"},
      {"variant": "C8G A22G U44A A52C A73C C125G", "polymerase ribozyme fitness (log ratio)": "≤ -4.2"},
      {"variant": "C8A U53A", "polymerase ribozyme fitness (log ratio)": -3.45},
      {"variant": "U7G A16U A28C G62C G86U C95U A110U", "polymerase ribozyme fitness (log ratio)": "≤ -4.2"},
      {"variant": "C8A A22U A41C C93A G136C", "polymerase ribozyme fitness (log ratio)": "≤ -4.2"},
      {"variant": "C8A A12U U15G G62U G124A", "polymerase ribozyme fitness (log ratio)": "≤ -4.2"},
      {"variant": "C8G C35U G46C C72U G74U C96U A107G", "polymerase ribozyme fitness (log ratio)": "≤ -4.2"},
      {"variant": "U6A C57G C96U G141C", "polymerase ribozyme fitness (log ratio)": -0.945},
      {"variant": "U6C A16U A17G C85U A89G", "polymerase ribozyme fitness (log ratio)": "≤ -4.2"},
      {"variant": "C8A U31C A41U G58A G71A C76U C125U A142G", "polymerase ribozyme fitness (log ratio)": "≤ -4.2"},
      {"variant": "U6G A21C G152A", "polymerase ribozyme fitness (log ratio)": -2.84},
      {"variant": "C8G A147C", "polymerase ribozyme fitness (log ratio)": "≤ -4.2"},
      {"variant": "C8G G11C C14U G50C C95U C132A U135A A137C", "polymerase ribozyme fitness (log ratio)": "≤ -4.2"}
    ]}
  ]
}
